No end group written: not given here. Pam2 = lipid part of the lipopeptide Pam2CSK4
Molecular target: soluble form of human recombinant TLR2 (extracellular domain Glu 21-Leu 590) (human, UniProt O60603 21-590)
Sequence (O60603 21-590): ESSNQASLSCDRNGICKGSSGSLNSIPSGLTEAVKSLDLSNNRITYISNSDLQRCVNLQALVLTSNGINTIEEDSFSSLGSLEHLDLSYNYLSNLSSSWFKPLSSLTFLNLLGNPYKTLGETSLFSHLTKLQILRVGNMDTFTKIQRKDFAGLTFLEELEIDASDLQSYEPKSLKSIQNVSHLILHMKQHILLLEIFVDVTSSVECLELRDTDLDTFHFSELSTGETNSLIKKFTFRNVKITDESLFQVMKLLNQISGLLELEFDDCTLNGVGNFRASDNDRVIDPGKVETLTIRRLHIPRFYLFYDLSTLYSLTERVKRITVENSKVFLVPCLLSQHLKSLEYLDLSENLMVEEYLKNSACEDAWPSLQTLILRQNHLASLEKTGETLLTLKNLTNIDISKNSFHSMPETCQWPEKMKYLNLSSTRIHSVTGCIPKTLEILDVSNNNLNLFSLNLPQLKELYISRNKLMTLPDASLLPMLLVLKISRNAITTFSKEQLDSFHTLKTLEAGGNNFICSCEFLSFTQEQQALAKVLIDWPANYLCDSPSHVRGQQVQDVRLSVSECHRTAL

B1: Pam2CSK4 lipopeptide (peptide)
peptide: C(Pam2)SKKKK
Kd: 5.34 µM

Reference: article PMC2413007 (2008)
